Publication PMC12237041

Key:
[1] = molecular target: T1, synthetic peptide mimicking the IgA1 hinge region, …-NH2 (human)
T1 sequence (peptide, C-terminal amide): VTVPSPVPSTPAR

[2] = molecular target: IgA purified from human plasma (human); assay: SEC; Superdex 200 10/300 GL; independent runs of plasma IgA, of inactive IgAse1–7 + E540A and of a preincubated mixture of both

Row | Binder | cleavage of the hinge peptide after overnight incubation at 37 °C, MALDI-TOF mass spectrometry [1] | Kd [2]
1 | IgAse1–4 (enzyme) MASKPDIKVGDYVKMGVYNNASILWRCVSIDNNGPLMLADKIVDTLAYDAKTNDNSNSKSHSRSYKRDDYGSNYWKDSNMRSWLNSTAAEGKVDWLCGNPPKDGYVSGVGAYNEKAGFLNAFSKSEIAAMKTVTQRSLVSHPEYNKGIVDGDANSDLLYYTDISEAVANYDSSYFETTTEKVFLLDVKQANAVWKNLKGYYVAYNNDGMAWPYWLRTPVTDCNHDMRYISSSGQVGRYAPWYSDLGVRPAFYLDSEYFVTTSGSGSQSSPYIGSAPNKQEDDYTISEPAEDANPDWNVSTEQSIQLTLGPWYSNDGKYSNPTIPVYTIQKTRSDTENMVVVVCGEGYTKSQQGKFINDVKRLWQDAMKYEPYRSYADRFNVYALCTASESTFDNGGSTFFDVIVDKYNSPVISNNLHGSQWKNHIFERCIGPEFIEKIHDAHIKKKCDPNTIPSGSEYEPYYYVHDYIAQFAMVVNTKSDFGGAYNNREYGFHYFISPSDSYRASKTFAHEFGHGLLGLGDEYSNGYLLDDKELKSLNLSSVEDPEKIKWRQLLGFRNTYTCRNAYGSKMLVSSYECIMRDTNYQFCEVCRLQGFKRMSQLVKDVDLYVATPEVKEYTGAYSKPSDFTDLETSSYYNYTYNRNDRLLSGNSKSRFNTNMNGKKIELRTVIQNISDKNARQLKFKMWIKHSDGSVATDSSGNPLQTVQTFDIPVWNDKANFWPLGALDHIKSDFNSGLKSCSLIYQIPSDAQLKSGDTVAFQVLDENGNVLADDNTETQRYTTVSIQYKFEDGSEIPNTAGGTFTVPYGTKLDLTPAKTLYDYEFIKVDGLNKPIVSDGTVVTYYYKN | < 1% | 
2 | IgAse1–7 + E540A (domain or fragment) MASKPDIKVGDYVKMGVYNNASILWRCVSIDNNGPLMLADKIVDTLAYDAKTNDNSNSKSHSRSYKRDDYGSNYWKDSNMRSWLNSTAAEGKVDWLCGNPPKDGYVSGVGAYNEKAGFLNAFSKSEIAAMKTVTQRSLVSHPEYNKGIVDGDANSDLLYYTDISEAVANYDSSYFETTTEKVFLLDVKQANAVWKNLKGYYVAYNNDGMAWPYWLRTPVTDCNHDMRYISSSGQVGRYAPWYSDLGVRPAFYLDSEYFVTTSGSGSQSSPYIGSAPNKQEDDYTISEPAEDANPDWNVSTEQSIQLTLGPWYSNDGKYSNPTIPVYTIQKTRSDTENMVVVVCGEGYTKSQQGKFINDVKRLWQDAMKYEPYRSYADRFNVYALCTASESTFDNGGSTFFDVIVDKYNSPVISNNLHGSQWKNHIFERCIGPEFIEKIHDAHIKKKCDPNTIPSGSEYEPYYYVHDYIAQFAMVVNTKSDFGGAYNNREYGFHYFISPSDSYRASKTFAHAFGHGLLGLGDEYSNGYLLDDKELKSLNLSSVEDPEKIKWRQLLGFRNTYTCRNAYGSKMLVSSYECIMRDTNYQFCEVCRLQGFKRMSQLVKDVDLYVATPEVKEYTGAYSKPSDFTDLETSSYYNYTYNRNDRLLSGNSKSRFNTNMNGKKIELRTVIQNISDKNARQLKFKMWIKHSDGSVATDSSGNPLQTVQTFDIPVWNDKANFWPLGALDHIKSDFNSGLKSCSLIYQIPSDAQLKSGDTVAFQVLDENGNVLADDNTETQRYTTVSIQYKFEDGSEIPNTAGGTFTVPYGTKLDLTPAKTLYDYEFIKVDGLNKPIVSDGTVVTYYYKNKNEEHTHNLTLVAAKAATCTTAGNSAYYTCDGCDKWFADATGSVEITDKTSVKIPAPGHTAGTEWKSDDTNHWHECTVAGCGVIIESTKSAHTAGEWIVDTPATATTAGTKHKECTVCHRVLETQPIPSTGTELKIIAGDNQIYNKASGSDVTITCNGDFAKFTGIKVDGSVVDSSNYTAVSGSTVLTLKASYLGTLTDGSHTITFVYTDGEANANLTVRTAGSGHIHDYGTEWKSNADNHWHECNCGDKKDEAAHSFKWVVDKEATATKKGSKHEECKICGYKRSAVEI |  | > 10 µM
